Test results from US20040009568.

Tests used:
[1] = target: dephosphorylated α-casein (UniProt P02662)
Sequence of dephosphorylated α-casein (P02662 16-214): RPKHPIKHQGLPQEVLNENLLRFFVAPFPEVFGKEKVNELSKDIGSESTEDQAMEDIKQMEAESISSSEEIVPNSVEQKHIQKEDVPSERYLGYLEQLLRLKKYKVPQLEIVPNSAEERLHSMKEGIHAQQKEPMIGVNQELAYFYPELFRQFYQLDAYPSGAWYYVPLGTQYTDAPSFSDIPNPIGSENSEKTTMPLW

Row | Substance | Km (steady-state, coupled enzymatic assay, 37 C) (poly(Glu4Tyr)) [mM] | kcat/Km (steady-state, coupled enzymatic assay, 37 C) (poly(Glu4Tyr)) [s^-1M^-1] | autophosphorylation rate | Km, Dephosphorylated α-casein (coupled, enzymatic format) [1] [mM]
1 | catalytic domain of the human hepatocyte growth factor receptor kinase (HGFRkd), unphosphorylated | 10.1 | 48.1 | The HGFR autophosphorylation rate is dependent on the concentration of HGFR. | –
2 | phosphorylated HGFR (autophosphorylated catalytic domain of the human hepatocyte growth factor receptor kinase) | 8.19 | 9260 | – | 0.0285 ± 0.0035
